Assay results taken from the DeepSol protein solubility set.

Assay: soluble on expression in E. coli; label from the status in PepcDB or PDB records

| Sequence | soluble on expression in E. coli |
| --- | --- |
| MLKSILRGALVATKPGPARRQFSFTALLRSETQPKEIINLERVQVRKMKKRRPVASSVVPKSLREPSVVAMALSESLNLNEVIMDAQLNGMYNITAIDEDADDSLHFVKKLEYTINPGELSEIFVFRDGVVVFWNVDSSQRSHILRELERYADAPYDSMIVMDEQDRMFYKFSEQSTGSTIRQDRFYLSGKHLDAFHGSNEAILERFALSQGFAASVKIGVWESLLNNLAEPLSNTTKSLTLGKIPWSRKQALMRSGEFAALRHSINLDCTLLNKDFYWERPELEKYYTMTGRHFSLDRRIGLLNKRLDYCEELVKMVDNTIALRHASHLEWMIIVLIVIEVIFDVFHFADKTPKSVMIVPDSSKAQQLRNEGN | not soluble |
| MLKVFADRGGTFTDIVAVTHNQEIIERLSKSTERFLIVPLPNQEWIIVYKLLSENPEQYQDAVIQGIRDIIGLSRNEPISDEAIEVVKMGTTVATNALLERKGDRVVLLITTGFKDALRIGYQNRPNIFAQRIVLPTMLYEQVIEVEERYDAQGNELTPVNIAQVKEDLQAVYHTGIRSCAIILMHSDRYPIHEQQVAQIAQEIG | not soluble |
| MLKVLVVDDEMLARDELKYLLERTKEVEIIGEADCVEDALEELMQSRPDIVFLDIQLSDDNGFEIANILKKMKNPPAIVFATAYDQYALQAFEVDALDYILKPFDEERIVQTLKKYKKQKQSQIETKHEIKGTDVTVEMHKLALPIEESIVLVNIEDIVYVGLVDGKVTVKTMRETYVTHDTLVILEKKLPQVSFMRVHRSFIANINHITEIQPWFNSTYNLIMKEGSKVPVSRTYAKELKKLLRI | not soluble |
| MLLDFPHGQFGFTNSCIIAVIWLSLSPTLNRGQLNLDRFKFWLPTSQLLVLDVCLFDAFALEHHHHHH | not soluble |
| MLLEEVRAGDRLSGAAARGDVQEVRRLLHRELVHPDALNRFGKTALQVMMFGSTAIALELLKQGASPNVQDTSGTSPVHDAARTGFLDTLKVLVEHGADVNVPDGTGALPIHLAVQEGHTAVVSFLAAESDLHRRDARGLTPLELALQRGAQDLVDILQGHMVAPL | soluble |
| MLLENFYKIIHIKEREDGKQEIEIELNPGHVLYQGHFPGQPVVPGVCTLQIIKESAEQIASQPLQYVQIASSKFLSAINPLETPLLQLFIRLEKTEEHLFKLQAEGICNGKEFIKLKAVLMASKYQLEHHHHHH | soluble |
| MLLHTFFDDSKTSVEETPRMFVARLFGSPVSTSIIPTEKESINNNNQETAKMPLDPMDSLWMSKAPQVSDLVVQPNVTFKAVTGGSPHSPSASIPIAGADDSIRPDYDTDCLWKPPTRSARVQKERTISMDSTDSEIGALGGRKFSTNEGASPAPTSPIDAQPRARRMSISEMLFGSSPKSFSWGMESNTTNTTTTSNSGGGDIGERKMSITDDPRFKDFMKHQSKIIGDDGISAAGFKRSNYMKD | not soluble |
| MLLKTKHFGEINIDESKIIEFKDGIPGFENLKRYVVLYDGDKNSPFRWLQNVDDGELAFAVVNPFMVVKDYDFEIPDEAVESLGIESILDVMVLSIVVVPEDISKMTMNLKAPVIINTKNNKGMQVVLDTDRYSVRHYIIEELRRQEVNVGAGSDEKEK | soluble |
| MLLMKTASKTNNSVRRNMNTHSAISELIAPWLELTDPKLAALVITHLELDSRLIKSGDTFVAIQGHAVDGRQFIDKAIAQGANLVLAEADAQHLNGWVEYRAGVPVIYLAELGQHLSELAGRLYGGHHNQLIGVTGTNGKTTITQLIAQWLELLGHKAAVMGTTGNGFLNALEPAANTTGNALQIQATLRDLAERGAQYTALETSSHGLVQGRVKKLHFVAGVFSNLSRDHLDYHGTMEAYAAAKFSLFSEHACQNAIINVDDAVGAQWVKQLPQAIGVSLVTKPNTAQAIWAREVAYAESGITLNFESSWGEGELHAPLIGEFNACNLLLALATLLSLGFEKSALLATAPKLRPVLGRMELFQREQKAKMVVDYAHTPDALEKALRALRVHCAGQLWAIVGCGGDRDRGKRPMMAAIAEQFADRVILTDDNPRSESPQAIVADMVAGLTYPERAHIEHHRFQAASYALQHAGAQDIILLAGKGHEDYQVLANETIHYSDRETAQQLLELQP | not soluble |
| MLLNEKDFKNEGVKIAALIMAESARTAPKSKGEDTIEIVYVDGEEMEKIAAKMEEMAEGGDKDFIRDAESVRKSQAILLIGAKGDRTVGVNCQACGFESCSEFKKADRKGENFVGPNCAFRMIDLGIALGSAVKVSAMLGIDTRIMYRIGIAAKKLGMIDADVVMGVPLSALGKSPYFDRAPKK | not soluble |
| MLLPWLFPQTKRNNFAAKVNSENQEKLLILRKEDASASSGQSELSLVQMGLKQVVASSFWLVFEFQHFKVGCNAARKFPVNGIANAQPQQCGTYRSHNGKLSIAIGHFCRIHQRAHTHFAIAKIAEFNPAVHCHHVVWHLFWRTHLGAIQLCV | not soluble |
| MLLQELLGIDEDIYLIEESYTSQRNPELTLQYLNRFLNFPDIENIRIIRVRQAGHTTGLLFFNPADEDVPVDFWSVFTGAFAQPALKEKFETLADSLLNLTSPEKDIELLHETWFNAVNEYYSLMLVNRNLCTSCSVKPESYGNVFSENRIKRVAEILELLRKKGYYPEGRLLEVCCGNGMSTLALYRSGLDPLAIEINKCTICQGLEQGVLNPQRVMVMDAAAVSRYFEPGSFDAVMGFMLGLVYEFNKGLWVRIVREAVSVAADGAVLLFTVSSKPEIEILADALFRAGVDGEIVDNTDSEGAYDQWLFVGRRQKNTST | not soluble |
| MLLVSGCSGELYSSHTHSLRWFCQSPEGCEREAEVKALARVLLYTDTFTLYTDYGQFAVDFVQRVPSDELPRECDALYGLSLFGHELESSTLCSVGGDAYEMRISVPNRNPSSASEWLAEMRPL | not soluble |
| MLMIKVVCGKKGSGKTRALVDSANSFVSTALGDAVFIDGSSQLMCDLHHKVRFINVSEFPIDISSSCTFLGFLCGIISSNFDVKWVYMDDLIRIVRKPPHEMKELFDGFNELSEKFNVDFYVSIEGDPDSMPDFIKVCY | not soluble |
| MLMSVFHNWLLEIACENYFVYIKRLSANDTGATGGHQVGLYIPSGIVEKLFPSINHTRELNPSVFLTAHVSSHDCPDSEARAIYYNSAHFGKTRNEKRITRWGRGSPLQDPENTGALTLLAFKLDEQGGDCKEVNIWVCASTDEEDVIETAIGEVIPGALISGPAGQILGGLSLQQAPVNHKYILPEDWHLRFPSGSEIIQYAASHYVKNSLDPDEQLLDRRRVEYDIFLLVEELHVLDIIRKGFGSVDEFIALANSVSNRRKSRAGKSLELHLEHLFIEHGLRHFATQAITEGNKKPDFLFPSAGAYHDTEFPVENLRMLAVKTTCKDRWRQILNEADKIHQVHLFTLQEGVSLAQYREMRESGVRLVVPSSLHKKYPEAVRAELMTLGAFIAELTGLYADIP | soluble |
| MLNARINQSIKCNQVRIHNVADKITWAELTKIEQLLKIIPQWEKLIKIQTTSKIFNSTSWVASWLETFWQKNWQLNVLIAWCDDELIAIVPLYYQQNNSILPMKVLYPLGQGEAEAQEISTEYTDILINEKFQEHLLPKIQQWILNLKADQLHWHALLHNSSTRNILADYEQTKSNEATRYIVNGLNWSLENLSKNMRSRYRRGLNQLDKLNATIDWVEQSDFDQYWQLMKKLHQKRWQGKNAKGAFCSDEFNQFHAKFREKSPKNIAMSAIWVNDTPIAIHYYFSDATTLYFYQSGWNESEYSHLSPGLILHLWTIENNNKPYYDFMMGKKKDSYKAKFATLQQPMYNITLTFSPIKLLFYSVFEKIKVKYLSA | not soluble |
| MLNEKQAKHIATAIENGNYRSKRQAIVDTTNFWSVSVPIFYQFDTKLSATNIANVRKAIQFWNDNSCLSFKEDNNAKNRLFLSSAGGCWSYVGKQVDMPYQMVSVGPNCDTFGTATHELMHAIGFWHQQSRADRDNYVYVDFSNIIPSQAYNFQKMAVDQAQLLNLPYDYGSVMQYYPYAFAVDSSKYTILAKENGFQNSMGQREAPAFSDIIGVNKLYNCTSQCKIQMKCSNCGITDSRNCNQCKCPRYFTGASCDSLPSGTAPNCNGAVLQATSSWETFDAKAGDPSSFSSSTDNSTNCYWHIKAPEGQQIEFKMTKTPLAAICMQECPWQSIEVNLGKFDLFGMITCCDTILNQVFTSELNMIALRGIIRYNQLTFSIQYRAVPSSKPASTNACLNQ | not soluble |
| MLNIFTTISKINITSLAIGCFDGMHLGHLKLVKCLDENGALLVINKFKGQFLCSNRQKEEISGKKVIEVDFESIKSLDGRDFLSFLKKEFVNLKFIVVGYDFSFGKNRAYNAKDIESLSGIKTIIVDEFSIDGIGVHASLIKDFLSKANLQKAKEFLGRDYSIKGKMIKGQGLGSKELFATINLDCEGYFLPQNGVYVTLLKSQRKTYKSVSFLGVRSSDENFAIESHILEELGENFTQGEFFELEFISFLRENQKFQDLKKLKNQIAKDIEQARELLRKNDER | not soluble |
| MLNILDIITDWIKEILRDCIMGNLDGMFDQINNEVGEVAANVGTTPAAWNAGVFSMIRNLSDT | not soluble |
| MLPDVQLLKPEVPIGLSRVGATGIKKLVEVQREGKRPIILISTFDVFVDLPAHLKGVNLSRNFEVIDEVLETLTAKPIENIEDLVVEIADHLLKRHEYATKAEARMNSELIMRKRTPKTGQRTQEVVKIFGEATLGRDGSKVIMVGVEVTGITACPCAQELVKASSAERLAKMGFDEETIQKILDAIPVATHNQRGRATLKVQVTDSFKVPIAKLIDVAKSSMSYETYEILKREDELAVVEAAHRNTRFVEDGVRYMAMELLKTFPNAPDDILVFLRQENEESIHQHNVVAERFA | not soluble |
| MLPQRLKKAITDNPKKLGNLIDLVNLPSTLRNFVGQSQISRLGCFMRVWSYIKTNNLQDPKNKNVVICDEKLKSILLGKQRVELVDLPSLIKLHFPKEQKKNSQKI | not soluble |
| MLQISHLYADYGGKPALEDINLTLESGELLVVLGPSGCGKTTLLNLIAGFVPYQHGSIQLAGKRIEGPGAERGVVFQNEGLLPWRNVQDNVAFGLQLAGIEKMQRLEIAHQMLKKVGLEGAEKRYIWQLSGGQRQRVGIARALAANPQLLLLDEPFGALDAFTRDQMQTLLLKLWQETGKQVLLITHDIEEAVFMATELVLLSSGPGRVLERLPLNFARRFVAGESSRSIKSDPQFIAMREYVLSRVFEQREAFS | soluble |
| MLQVTGIPDACDNLAPIPMECDAPFLSIKGELPRELNGTLYRNGANPQFVSPNAHWFFGDGMLHAFHLENGRASYRNRWVRTPKWLAEHEAGRPLYGEFNLKLPDAPRSVPDDGNVANTNIVFHAGRLLALEEAHLPMQIERDTLETRCYCDYGGALKGPFTAHPKIDPVTGEMLFFGYNASGPLTRTMSFGAIDASGNVTRLEHFKAPFAAMVHDFIVTEHHVLFPILPLTGSIWRAMRGRPPYAWDPRKGSYVGVMKRSGSTRDVRWFRGEACFVFHVMNAWEDGTRIVADVMQSEEAPLFTHPDGRRTDPEKGRARLCRWSFDLAGNTNAFKRSYLDEISGEFPRIDERRAGLRSGHGWYACASPETPMLGMLTGLVHVDGNGHRRTRYLLPTGDTIGEPVFVPRAADANEAEGWLLAVVWRGCENRSDLAVFNATDIAAGPIALVQLGHRIPDGFHGNWVPAGAAALEHHHHHH | not soluble |
| MLRDTFANTLKDALKARDARRTSTVRLIQAAVKDRDIANRGVGKDPVSDEDIMQILTKMVKQREESATIYEGAGRPELAAQEREEIVIIKEFMPEEIPAEKVRELCQAVISETGASGLRDMGKCMNALKERYPGQIDFAKASGVVKDLLK | not soluble |
| MLRIIVIGTTGSGKTTFARALAQRLGLPHGEQDAWNHEANWQMAPLGRFRARVDTFTSQPAWVMDGNYGKARDLGWARADTLIWLDFPAWLVYSRLVRRTLWRVLTQQELWNGNRETWRGALLDPEGPLRWFWKTHWRRRQETPALAAEFPHLRLVRLRSPGEARRFLAAVGRGHPTALEHHHHHH | not soluble |
